According to article PMC8752864 (Nature Communications, 2022):

Molecular target: the molecule itself
Assay: cryo-EM structure

B1: RNA polymerase of influenza A/Brevig Mission/1/1918 (H1N1) virus, heterotrimer of PA, PB1 and PB2 (complex)
chain 1: […]
chain 2: MDVNPTLLFLKVPAQNAISTTFPYTGDPPYSHGTGTGYTMDTVNRTHQYSEKGRWTTNTETGAPQLNPIDGPLPEDNEPSGYAQTDCVLEAMAFLEESHPGIFENSCLETMEVVQQTRVDKLTQGRQTYDWTLNRNQPAATALANTIEVFRSNGLTANESGRLIDFLKDVMESMDKEEMEITTHFQRKRRVRDNMTKKMVTQRTIGKKKQRLNKRSYLIRALTLNTMTKDAERGKLKRRAIATPGMQIRGFVYFVETLARSICEKLEQSGLPVGGNEKKAKLANVVRKMMTNSQDTELSFTITGDNTKWNENQNPRMFLAMITYITRNQPEWFRNVLSIAPIMFSNKMARLGKGYMFESKSMKLRTQIPAEMLASIDLKYFNDSTRKKIEKIRPLLIDGTASLSPGMMMGMFNMLSTVLGVSILNLGQKRYTKTTYWWDGLQSSDDFALIVNAPNHEGIQAGVDRFYRTCKLLGINMSKKKSYINRTGTFEFTSFFYRYGFVANFSMELPSFGVSGINESADMSIGVTVIKNNMINNDLGPATAQMALQLFIKDYRYTYRCHRGDTQIQTRRSFEIKKLWEQTRSKAGLLVSDGGPNLYNIRNLHIPEVCLKWELMDEDYQGRLCNPLNPFVSHKEIESVNNAVMMPAHGPAKNMEYDAVATTHSWIPKRNRSILNTSQRGILEDEQMYQKCCNLFEKFFPSSSYRRPVGISSMVEAMVSRARIDARIDFESGRIKKEEFAEIMKICSTIEELRRQK
chain 3: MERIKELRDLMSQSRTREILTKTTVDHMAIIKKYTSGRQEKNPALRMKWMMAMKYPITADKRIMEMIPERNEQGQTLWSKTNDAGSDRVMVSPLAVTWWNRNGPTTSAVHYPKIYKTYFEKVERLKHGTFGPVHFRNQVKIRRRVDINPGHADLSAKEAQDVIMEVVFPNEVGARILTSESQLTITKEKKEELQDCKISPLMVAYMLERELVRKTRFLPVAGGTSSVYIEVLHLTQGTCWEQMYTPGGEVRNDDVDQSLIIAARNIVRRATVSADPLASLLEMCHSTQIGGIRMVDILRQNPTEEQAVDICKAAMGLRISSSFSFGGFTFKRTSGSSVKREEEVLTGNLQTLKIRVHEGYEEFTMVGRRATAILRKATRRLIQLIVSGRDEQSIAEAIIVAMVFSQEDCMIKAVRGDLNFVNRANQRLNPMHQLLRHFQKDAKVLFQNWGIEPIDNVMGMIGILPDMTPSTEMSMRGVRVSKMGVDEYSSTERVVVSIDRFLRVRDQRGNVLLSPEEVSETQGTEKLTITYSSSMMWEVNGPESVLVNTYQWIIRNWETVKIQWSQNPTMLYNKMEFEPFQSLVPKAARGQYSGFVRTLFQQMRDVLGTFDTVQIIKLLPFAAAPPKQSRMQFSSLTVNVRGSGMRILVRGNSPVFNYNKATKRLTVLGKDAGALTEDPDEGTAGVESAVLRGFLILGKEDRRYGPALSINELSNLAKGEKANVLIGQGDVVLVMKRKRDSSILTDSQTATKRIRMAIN
notes: also called 1918 polymerase; 1918 pandemic influenza virus polymerase; copies: + +
  binding result: binds
